{"source": "patent US11130803B2", "about": "“Isoform-selective TGFβ1 inhibitors and use thereof” (Scholar Rock, Inc., priority 2018, dated 2021)", "molecules": {"B1": {"name": "Ab6-mIgG1: chimeric antibody with the human V domains of Ab6 fused to mouse IgG1/kappa constant domains (protein)", "heavy chain": "EVQLVESGGGLVQPGGSLRLSCTASGFTFSSFSMDWVRQAPGKGLEWVSYISPSADTIYYADSVKGRFTISRDNAKNTLYLQMNSLRAEDTAVYYCARGVLDYGDMLMPWGQGTLVTVSS", "light chain": "DIQMTQSPSSLSASVGDRVTITCQASQDITNYLNWYQQKPGKAPKLLIYDASNLETGVPSRFSGSGSGTDFTFTISSLQPEDIATYYCQQADNHPPWTFGGGTKVEIK"}, "B2": {"name": "decorin: proteoglycan abundant in skeletal muscle that inhibits TGFβ activity (protein, UniProt P07585 31-359, looked up)", "Decorin": "DEASGIGPEVPDDRDFEPSLGPVCPFRCQCHLRVVQCSDLGLDKVPKDLPPDTTLLDLQNNKITEIKDGDFKNLKNLHALILVNNKISKVSPGAFTPLVKLERLYLSKNQLKELPEKMPKTLQELRAHENEITKVRKVTFNGLNQMIVIELGTNPLKSSGIENGAFQGMKKLSYIRIADTNITSIPQGLPPSLTELHLDGNKISRVDAASLKGLNNLAKLGLSFNSISAVDNGSLANTPHLRELHLDNNKLTRVPGGLAEHKYIQVVYLHNNNISVVGSSDFCPPGHNTKKASYSGVSLFSNPVQYWEIQPSTFRCVYVRSAIQLGNYK"}, "B3": {"name": "Ab18: monoclonal antibody; VH SEQ ID NO: 249, VL SEQ ID NO: 241 (antibody, V domains shown)", "VH": "QVQLVESGGGVVQPGRSLRLSCAASGFTFSDYAMVWVRQAPGKGLEWVSAISGSGAATYFADSVKGRFTISRDNSKNTLYLQMNSLRAEDTAVYYCATVSSGHWDFDYWGQGTLVTVSS", "VL": "DIQLTQSPSSLSASVGDRVTITCRASQSISSYLNWYQQKPGKAPKLLIYAASNLQSGVPSRFSGSGSGTDFTLTISSLQPEDFATYYCQQTYTVPLTFGGGTKVEIK"}}, "key": {"non-diseased rat BAL": {"tested_on": "non-diseased rat BAL", "settings": "cited from earlier work"}, "[1]": {"tested_on": "mouse models of injury, Marfan's syndrome, and muscular dystrophy", "settings": "in vivo; cited from earlier work"}, "human patients": {"tested_on": "human patients", "settings": "in vivo; cited from earlier work"}, "[2]": {"settings": "human, in vivo; cited from earlier work"}, "[3]": {"tested_on": "MBT2 tumors, intratumoral immune cells", "experiment": "MBT2 tumor immune contexture (flow cytometry, IHC, qPCR)", "settings": "mouse, in vivo", "from_the_text": "To study the immune effects of anti-PD-1 or AB6-mIgG1 treatment as single agents or in combination, MBT-2 tumors were harvested from mice 10 days after treatment initiation and then subjected to immunohistochemical and flow cytometry analyses of select immune cell markers. […] The relevance of this increase in Treg cells is unclear given the significant anti-tumor effects observed with combination treatment. […] This appears to be due to selective reduction in CD11b+CD206+ and CD11b+Gr1+ subpopulations, which correspond to immunosuppressive M2-like macrophages and myeloid-derived suppressor cells (MDSC), respectively. Collectively, the representation of these two populations of cells is reduced from an average of 47% of the CD45+ cell population to 14% after combination treatment (FIG. 34B).\nEach study group contained 12 mice with MBT2 tumors as described herein. Ab6-treatment group received the antibody weekly, on day 1 and day 8, at 10 mg/kg. […]\nTumor-associated immune cell subsets were also analyzed by tumor flow cytometry in MBT-2 tumors. […] Flow cytometry was performed on a Attune NxT (ThermoFisher) and analyzed with FlowJo (BD Bioscience).\nFor immunohistochemical analysis, tumors from six animals were cut in halves and fixed. […] FIG. 36E provides the quantitation of the IHC data, shown as % of CD8-positive cells of total nuclei. […]"}, "mdx mice": {"tested_on": "mdx mice", "settings": "cited from earlier work"}, "[4]": {"tested_on": "matrix-associated (LTBP1/LTBP3) and cell-associated (GARP/LRRC33) proTGFβ1 complexes", "experiment": "Octet: average KD and fold bias, matrix- vs cell-associated complexes", "type": "binding, human", "from_the_text": "Column (A) of the table lists monoclonal antibodies with discrete amino acid sequences. […] Columns (B), (D), (E) and (F) provide affinities of each of the listed antibodies, measured in KD. […] Average KD values of (B) and (C) are shown in the corresponding column (D), which collectively represents affinities of the antibodies to ECM- or matrix-associated proTGFβ1 complexes. Similarly, Average KD values of (E) and (F) are shown in the corresponding column (G), which collectively represents affinities of the antibodies to cell-surface or cell-associated proTGFβ1 complexes. Finally, relative ratios between the average KD values from columns (D) and (G) are expressed as “fold bias” in column (H). […] This is one way of quantitatively representing and comparing inherent bias of antibodies to their target complexes.\nAverage KD values between the two matrix-associated and cell-associated complexes are calculated, respectively (see columns (D) and (G)). These average KD values can then be used to ask whether bias in binding activities exists between complexes associated with matrix vs. complexes associated with cell surface (e.g., immune cells). Bias may be expressed as “fold-difference” in the average KD values, as illustrated in Table 8."}, "[5]": {"tested_on": "matrix-associated (LTBP1/LTBP3) and cell-associated (GARP/LRRC33) proTGFβ1 complexes", "experiment": "Octet: average KD and fold bias, matrix- vs cell-associated complexes", "type": "binding, human", "settings": "average KD of (B) and (C), read-out: (D) ECM AVRG"}, "[6]": {"molecular_target": "T1, recombinant human LTBP1-proTGFβ1 complex (Homo sapiens, UniProt P01137)", "T1 construct": "made in house; host or cells: Expi293F cells, transient co-transfection", "T1 sequence (P01137 30-390)": "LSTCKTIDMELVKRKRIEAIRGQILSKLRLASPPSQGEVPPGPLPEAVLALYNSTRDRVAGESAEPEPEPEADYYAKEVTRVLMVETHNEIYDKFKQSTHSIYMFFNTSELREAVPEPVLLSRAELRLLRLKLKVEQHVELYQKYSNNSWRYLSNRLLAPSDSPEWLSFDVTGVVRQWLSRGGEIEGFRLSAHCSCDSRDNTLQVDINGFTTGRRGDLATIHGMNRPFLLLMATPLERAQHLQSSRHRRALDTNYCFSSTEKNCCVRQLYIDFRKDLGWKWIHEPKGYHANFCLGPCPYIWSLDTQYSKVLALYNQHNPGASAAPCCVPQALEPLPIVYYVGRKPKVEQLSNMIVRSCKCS", "T1 sequence (Q14766 873-1507 partner)": "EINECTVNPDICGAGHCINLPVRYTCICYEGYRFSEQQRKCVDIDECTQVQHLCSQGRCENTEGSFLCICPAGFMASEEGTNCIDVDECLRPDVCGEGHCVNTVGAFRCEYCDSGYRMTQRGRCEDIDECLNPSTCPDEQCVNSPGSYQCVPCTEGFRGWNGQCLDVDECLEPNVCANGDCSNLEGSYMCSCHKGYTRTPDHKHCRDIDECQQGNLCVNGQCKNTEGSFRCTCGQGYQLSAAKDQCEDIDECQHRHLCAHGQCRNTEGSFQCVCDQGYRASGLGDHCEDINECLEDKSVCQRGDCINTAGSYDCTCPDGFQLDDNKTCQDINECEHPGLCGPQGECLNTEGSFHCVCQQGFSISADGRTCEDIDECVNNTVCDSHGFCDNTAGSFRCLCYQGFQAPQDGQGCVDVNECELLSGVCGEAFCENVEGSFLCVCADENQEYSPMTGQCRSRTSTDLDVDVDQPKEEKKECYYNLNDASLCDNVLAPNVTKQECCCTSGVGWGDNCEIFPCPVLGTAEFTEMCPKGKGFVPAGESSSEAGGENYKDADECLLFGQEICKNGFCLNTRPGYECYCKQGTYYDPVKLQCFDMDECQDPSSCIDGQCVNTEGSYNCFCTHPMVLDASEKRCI", "experiment": "Octet (Biolayer Interferometry) in vitro kinetic binding", "settings": "in M", "from_the_text": "(§1) Biolayer Interferometry (BLI):BLI is a label-free technology for optically measuring biomolecular interactions, e.g., between a ligand immobilized on the biosensor tip surface and an analyte in solution. BLI provides the ability to monitor binding specificity, rates of association and dissociation, or concentration, with precision and accuracy. BLI platform instruments are commercially available, for example, from ForteBio and are commonly referred to as the Octet® System.\n(§2) BLI-based binding assays are widely used in the art for measuring affinities and kinetics of antibodies to antigens. It is a label-free technology in which biomolecular interactions are analyzed on the basis of optical interference. One of the proteins, for example, an antibody being tested, can be immobilized on the biosensor tip. When the other protein in solution, for example, an antigen, becomes bound to the immobilized antibody, it causes a shift in the interference pattern, which can be measured in real-time. This allows the monitoring of binding specificity, rates of association and dissociation, as well as concentration dependency. […] Due to its ease of use and fast results, BLI-based assays such as the Octet® system (available from ForteBio/Molecular Devices, Fremont Calif.), are particularly convenient when used as an initial screening method to identify and separate a pool of “binders” from a pool of “non-binders” or “weak binders” in the screening process.\n(§3) Table 8 below provides non-limiting examples of high-affinity, context-independent proTGFβ1 antibodies encompassed by the present invention. The table provides representative results from in vitro binding assays, as measured by Octet®.\n(§4) Column (A) of the table lists monoclonal antibodies with discrete amino acid sequences. […] Columns (B), (D), (E) and (F) provide affinities of each of the listed antibodies, measured in KD. […] Average KD values of (B) and (C) are shown in the corresponding column (D), which collectively represents affinities of the antibodies to ECM- or matrix-associated proTGFβ1 complexes. Similarly, Average KD values of (E) and (F) are shown in the corresponding column (G), which collectively represents affinities of the antibodies to cell-surface or cell-associated proTGFβ1 complexes. Finally, relative ratios between the average KD values from columns (D) and (G) are expressed as “fold bias” in column (H). Thus, the greater the number of column (H) is, the greater bias exists for the particular antibody, when comparing binding preferences of the antibody for matrix-associated complexes and cell-surface complexes. This is one way of quantitatively representing and comparing inherent bias of antibodies to their target complexes. Such analyses may be useful in guiding the selection process for a candidate antibody for particular therapeutic use.\n(§5) In some embodiments, the binding affinity of an antibody, or antigen binding portion thereof, to an antigen (e.g., protein complex), such as presenting molecule-proTGFβ1 complexes, is determined using an Octet assay. In some embodiments, an Octet assay is an assay that determines one or more a kinetic parameters indicative of binding between an antibody and antigen. In some embodiments, an Octet® system (ForteBio, Menlo Park, Calif.) is used to determine the binding affinity of an antibody, or antigen binding portion thereof, to presenting molecule-proTGFβ1 complexes. For example, binding affinities of antibodies may be determined using the fortéBio Octet QKe dip and read label free assay system utilizing bio-layer interferometry. In some embodiments, antigens are immobilized to biosensors (e.g., streptavidin-coated biosensors) and the antibodies and complexes (e.g., biotinylated presenting molecule-proTGFβ1 complexes) are presented in solution at high concentration ([…]) to measure binding interactions. […]"}, "[7]": {"molecular_target": "T2, recombinant human LTBP3-proTGFβ1 complex (Homo sapiens, UniProt P01137)", "T2 construct": "made in house; host or cells: Expi293F cells, transient co-transfection", "T2 sequence (P01137 30-390)": "as the sequence (P01137 30-390) above", "T2 sequence (Q9NS15 866-1039 partner limits assumed)": "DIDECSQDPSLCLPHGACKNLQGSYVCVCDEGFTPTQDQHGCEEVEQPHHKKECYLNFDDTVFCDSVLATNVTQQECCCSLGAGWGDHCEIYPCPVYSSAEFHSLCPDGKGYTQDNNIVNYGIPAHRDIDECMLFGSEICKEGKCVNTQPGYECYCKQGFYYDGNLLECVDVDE", "experiment": "Octet (Biolayer Interferometry) in vitro kinetic binding", "settings": "in M", "from_the_text": "as §1, §2, §3, §4, §5"}, "[8]": {"molecular_target": "T3, recombinant human GARP-proTGFβ1 complex (Homo sapiens, UniProt P01137)", "T3 construct": "made in house", "T3 sequence (P01137 30-390)": "as the sequence (P01137 30-390) above", "T3 sequence (Q14392 20-627 partner limits assumed)": "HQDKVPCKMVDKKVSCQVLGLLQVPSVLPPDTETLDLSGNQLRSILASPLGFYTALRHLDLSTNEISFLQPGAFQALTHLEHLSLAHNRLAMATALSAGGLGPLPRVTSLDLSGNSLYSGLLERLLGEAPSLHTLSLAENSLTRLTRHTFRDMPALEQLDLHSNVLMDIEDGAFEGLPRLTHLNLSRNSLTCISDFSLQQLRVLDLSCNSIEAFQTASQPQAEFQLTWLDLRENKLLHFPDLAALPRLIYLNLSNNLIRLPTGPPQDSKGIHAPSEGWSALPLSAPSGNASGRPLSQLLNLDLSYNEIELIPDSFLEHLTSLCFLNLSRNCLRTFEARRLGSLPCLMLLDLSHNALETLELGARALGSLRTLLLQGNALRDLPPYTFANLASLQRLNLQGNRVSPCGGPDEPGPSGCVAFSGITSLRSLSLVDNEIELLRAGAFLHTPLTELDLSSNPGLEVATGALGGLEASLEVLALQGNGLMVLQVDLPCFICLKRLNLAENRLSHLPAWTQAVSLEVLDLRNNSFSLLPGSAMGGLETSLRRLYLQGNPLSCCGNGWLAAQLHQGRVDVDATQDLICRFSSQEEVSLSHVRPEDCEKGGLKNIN", "experiment": "Octet (Biolayer Interferometry) in vitro kinetic binding", "settings": "in M", "from_the_text": "as §1, §2, §3, §4, §5"}, "[9]": {"molecular_target": "T4, recombinant human LRRC33-proTGFβ1 complex (Homo sapiens, UniProt P01137)", "T4 construct": "made in house", "T4 sequence (P01137 30-390)": "as the sequence (P01137 30-390) above", "T4 sequence (Q86YC3 19-650 partner limits assumed)": "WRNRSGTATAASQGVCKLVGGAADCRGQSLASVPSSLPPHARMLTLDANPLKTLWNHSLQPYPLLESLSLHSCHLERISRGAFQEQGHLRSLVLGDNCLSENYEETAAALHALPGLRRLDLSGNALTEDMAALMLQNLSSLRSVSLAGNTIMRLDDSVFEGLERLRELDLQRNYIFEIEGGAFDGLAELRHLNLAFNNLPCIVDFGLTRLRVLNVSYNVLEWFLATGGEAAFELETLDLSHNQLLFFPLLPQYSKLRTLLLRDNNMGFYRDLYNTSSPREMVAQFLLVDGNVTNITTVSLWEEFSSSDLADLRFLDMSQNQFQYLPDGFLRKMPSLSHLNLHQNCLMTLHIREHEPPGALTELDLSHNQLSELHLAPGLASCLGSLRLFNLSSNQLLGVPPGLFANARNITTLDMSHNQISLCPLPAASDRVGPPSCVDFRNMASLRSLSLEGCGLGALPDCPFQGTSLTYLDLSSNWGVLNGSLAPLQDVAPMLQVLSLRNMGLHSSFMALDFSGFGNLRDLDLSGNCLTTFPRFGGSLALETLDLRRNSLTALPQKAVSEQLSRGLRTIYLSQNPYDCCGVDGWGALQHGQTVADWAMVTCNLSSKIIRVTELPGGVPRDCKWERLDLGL", "experiment": "Octet (Biolayer Interferometry) in vitro kinetic binding", "settings": "in M", "from_the_text": "as §1, §2, §3, §4, §5"}}, "note": "Where two headings read alike, the source gives them in different places.", "data": [{"molecule": "c1ccc(-c2nn3c(c2-c2ccnc4cc(OCCN5CCOCC5)ccc24)CCC3)nc1", "note": "[LY2109761]", "values": [{"measurement": "TGFβ downstream tonic signaling", "setting": "non-diseased rat BAL", "result": "inhibit TGFβ downstream tonic signaling"}]}, {"molecule": "Cc1ccc(C(=O)Nc2ccc(S(=O)(=O)O)c3cc(S(=O)(=O)O)cc(S(=O)(=O)O)c23)cc1NC(=O)c1cccc(NC(=O)Nc2cccc(C(=O)Nc3cc(C(=O)Nc4ccc(S(=O)(=O)O)c5cc(S(=O)(=O)O)cc(S(=O)(=O)O)c45)ccc3C)c2)c1", "note": "[suramin]", "values": [{"measurement": "muscle pathology and fibrosis", "setting": "[1]", "result": "effective in improving muscle pathology and reducing fibrosis"}]}, {"molecule": "GC1008: human analog of 1D11; pan-TGFβ antibody", "values": [{"measurement": "previously reported adverse events", "setting": "human patients", "result": "leukocytosis (grade 3), fatigue (grade 3), hypoxia (grade 3), asystole (grade 5), leukopenia (grade 1), recurrent, transient, tender erythematous, nodular skin lesions, suppurative dermatitis, and herpes zoster"}, {"measurement": "Exposure: DN Cmax", "setting": "[2]", "result": "DN Cmax ~(350 ng/mL)mg (ng/mL)mg"}, {"measurement": "Exposure: Half life", "setting": "[2]", "result": "Half life: 21.7 d"}]}, {"molecule": "CCCCc1nc(Cl)c(CO)n1Cc1ccc(-c2ccccc2-c2nn[nH]n2)cc1", "note": "[losartan]", "values": [{"measurement": "muscle pathology and fibrosis", "setting": "[1]", "result": "effective in improving muscle pathology and reducing fibrosis"}]}, {"molecule": "B1", "values": [{"measurement": "phospho-Smad3 staining at tumor vascular endothelium (IHC)", "setting": "[3]", "result": "much diminished"}]}, {"molecule": "B2", "values": [{"measurement": "muscle fibrosis", "setting": "mdx mice", "result": "decreases muscle fibrosis"}]}, {"molecule": "B3", "values": [{"measurement": "Kd", "setting": "[4]; average KD of (E) and (F), cell-associated complexes, read-out: (G) Cell AVRG", "result": 6.26, "unit": "nM"}, {"measurement": "(H) G/D (fold bias)", "setting": "[4]; ratio of average KD cell-associated / matrix-associated", "result": 22.00, "unit": "fold"}, {"measurement": "Kd", "setting": "[5]", "result": 0.284, "unit": "nM"}, {"measurement": "(B) hLTBP1, Matrix-associated proTGFb1 (KD)", "setting": "[6]", "result": "3.12E−10"}, {"measurement": "(C) hLTBP3, Matrix-associated proTGFb1 (KD)", "setting": "[7]", "result": "2.57E−10"}, {"measurement": "(E) hGARP, Cell-associated proTGFb1 (KD)", "setting": "[8]", "result": "1.15E−08"}, {"measurement": "(F) hLRRC33, Cell-associated proTGFb1 (KD)", "setting": "[9]", "result": "1.02E−09"}]}]}
